US20260125469A1 (Hoffmann-La Roche, published 2026)

How the values were obtained:
[1] = target: T1, Human CD3ε stalk-Fc(knob)-Avi/CD3δ stalk-Fc(hole) (human); assay: SPR on immobilized human CD3ε/δ after stress, relative to sample kept at -80°C pH 6
T1 construct: Heterodimer of CD3 delta and CD3 epsilon ectodomains fused to human Fc with knob-into-hole; also called human CD3ε/δ; CD3 antigen
Procedure: In order to assess the effect of the deamidation site removal and its effect on the stability of the antibodies, the optimized anti-CD3 antibodies (in TCB format) were incubated for 14 days at 37° C., pH 7.4 and at 40° C., pH 6 and further analyzed by SPR for their binding capability to human CD3ε/δ. Samples stored at −80° C. pH 6 were used as reference. The reference samples and the samples stressed at 40° C. were in 20 mM His, 140 mM NaCl, pH 6.0, and the samples stressed at 37° C. in PBS, pH 7.4, all at a concentration of 1.0 mg/ml. After the stress period (14 days) samples in PBS were dialyzed back to 20 mM His, 140 mM NaCl, pH 6.0 for further analysis.
All SPR experiments were performed on a Biacore T200 instrument (GE Healthcare) at 25° C. with HBS-P+ (10 mM HEPES, 150 mM NaCl pH 7.4, 0.05% Surfactant P20) as running and dilution buffer. Biotinylated human CD3ε/δ (see Example 3, SEQ ID NOs 41 and 42) as well as biotinylated anti-huIgG (Capture Select, Thermo Scientific, #7103262100) were immobilized on a Series S Sensor Chip SA (GE Healthcare, #29104992), resulting in surface densities of at least 1000 resonance units (RU). Anti-CD3 antibodies with a concentration of 2 μg/ml were injected for 30 s at a flow rate of 5 μl/min, and dissociation was monitored for 120 s. The surface was regenerated by injecting 10 mM glycine pH 1.5 for 60 s. Bulk refractive index differences were corrected by subtracting blank injections and by subtracting the response obtained from a blank control flow cell. For evaluation, the binding response 5 seconds after injection end was taken. To normalize the binding signal, the CD3 binding was divided by the anti-huIgG response (the signal (RU) obtained upon capture of the CD3 antibody on the immobilized anti-huIgG antibody). The relative binding activity was calculated by referencing each temperature stressed sample to the corresponding, non-stressed sample.
The experiment was performed as described in Example 4, using the TCB molecules prepared in Example 7.

[2] = target: T1, Human CD3ε stalk-Fc(knob)-Avi/CD3δ …; assay: SPR, TCB captured by anti-PG antibody, antigen as analyte, 25°C
Source text: (§1) For affinity measurements, TCB molecules were captured on a C1 sensorchip (GE Healthcare) surface with immobilized anti-Fc(P329G) IgG (an antibody that specifically binds human IgG₁ Fc(P329G); “anti-PG antibody”—see WO 2017/072210, incorporated herein by reference). The experimental setup is schematically depicted in FIG. 3. Capture IgG was coupled to the sensorchip surface by direct immobilization of around 400 resonance units (RU) using the standard amine coupling kit (GE Healthcare Life Sciences).
(§2) Kinetic constants were derived using the Biacore T200 Evaluation Software (GE Healthcare Life Sciences), to fit rate equations for 1:1 Langmuir binding by numerical integration. The half-life (t_{1/2}) of the interaction was calculated using the formula t_{1/2}=ln2/koff.
(§3) To analyze the interaction to CD3, TCB molecules were captured for 240 s at 25 nM with a flow rate of 10 μl/min. Human and cynomolgus CD3F stalk-Fc(knob)-Avi/CD36-stalk-Fc(hole) were passed at a concentration of 0.14-100 nM with a flow rate of […] through the flow cells for 240 s. The dissociation was monitored for 800 s.

[3] = target: T2, Cynomolgus CD3ε stalk-Fc(knob)-Avi/CD3δ stalk-Fc(hole) (cynomolgus); assay: as above
T2 construct: also called cynomolgus CD3ε/δ
Source text: as §1, §2, §3

[4] = target: T3, human GPRC5D on stably transduced CHO-K1 cells (human, UniProt Q9NZD1 1-345); assay: flow cytometry on CHO-K1 cells stably transduced with human GPRC5D, performed as in Example 11
T3 construct: whole, on cells; also called CHO-hGPRC5D cells
Procedure: The binding of the CEACAM5-TCB molecules prepared in Example 7 was tested on CEACAM5 (CEA)-positive tumor cells (LS-180 cells, ECACC #87021202) and CD3-expressing immortalized T lymphocyte cells (GloResponse Jurkat NFAT-RE-luc2P; Promega, #CS176501). Briefly, adherent LS-180 cells were detached, using Cell Dissociation Buffer (Gibco), counted, checked for viability and re-suspended at 2 million cells per ml in FACS buffer (PBS with 0.1% BSA). Likewise, Jurkat suspension cells were harvested and plated for subsequent stainings. 100 μl of the cell suspension (containing 0.2 million cells) were incubated in round-bottom 96-well plates for 30 min at 4° C. with increasing concentrations of the CEACAM5-TCB molecules (4 pM-300 nM). Cells were washed twice with cold PBS 0.1% BSA (FACS buffer), re-incubated for further 30 min at 4° C. with the Alexa Fluor 647-conjugated AffiniPure F(ab′)2 Fragment Goat Anti-Human IgG, Fcγ Fragment Specific Antibody (Jackson Immuno Research Lab #109-606-008, diluted 1:50 in FACS buffer) and washed twice with cold PBS 0.1% BSA thereafter. The staining was fixed for 20 min at 4° C. in the dark, using 150 μl of 2% PFA in FACS buffer per well. Fluorescence was analyzed by FACS using a FACS Fortessa (Software FACS Diva). Binding curves were obtained using GraphPadPrism6.
The binding of the GPRC5D-TCB molecules prepared in Example 7 was tested using CHO-transfectants stably transduced to express human GPRC5D (CHO-K1, ATCC) and CD3-expressing immortalized T lymphocyte cells (GloResponse Jurkat NFAT-RE-luc2P; Promega, #CS176501). The experiment was performed as described in Example 11.

[5] = target: human CD3 on cells (CD3ε) (human, UniProt P07766 23-207); assay: cell-based or functional assay
Chain of human CD3 on cells (CD3ε) (P07766 23-207 limits assumed): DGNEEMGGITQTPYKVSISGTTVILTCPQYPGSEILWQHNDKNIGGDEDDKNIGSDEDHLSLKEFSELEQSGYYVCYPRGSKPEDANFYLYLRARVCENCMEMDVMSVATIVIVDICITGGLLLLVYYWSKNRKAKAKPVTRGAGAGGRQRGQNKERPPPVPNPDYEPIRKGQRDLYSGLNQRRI

T3 sequence (Q9NZD1 whole entry): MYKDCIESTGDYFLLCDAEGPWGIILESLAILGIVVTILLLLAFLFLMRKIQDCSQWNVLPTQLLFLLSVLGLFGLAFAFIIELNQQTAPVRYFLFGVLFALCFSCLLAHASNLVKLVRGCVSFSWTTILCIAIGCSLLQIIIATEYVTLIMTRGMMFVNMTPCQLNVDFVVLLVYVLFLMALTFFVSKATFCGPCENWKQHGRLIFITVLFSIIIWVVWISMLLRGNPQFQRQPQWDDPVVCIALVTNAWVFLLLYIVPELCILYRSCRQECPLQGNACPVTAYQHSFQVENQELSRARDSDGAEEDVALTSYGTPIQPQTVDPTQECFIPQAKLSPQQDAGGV

Row | Binder | binding activity [%] after 2 weeks at pH 6.0/40°C [1] | binding activity [%] after 2 weeks at pH 7.4/37°C [1] | Kd [2] | koff [2] | kon [2] | t1/2 [2] | Kd [3] | koff [3] | kon [3] | t1/2 [3] | binding result [4] | EC50 20 h (pM), T-cell mediated lysis of GPRC5D-expressing NCI-H929 cells [5]
1 | GPRC5D-TCB, GPRC5D CD3 variant P033.078 (bispecific antibody, human IgG1, kappa, L234A L235A, 2+1 IgG CrossFab, inverted; human IgG1 Fc, knob-into-hole, PGLALA; also called P033.078 in GPRC5D-TCB format) heavy 1: not shown heavy 2: EVQLVESGGGVVQPGRSLRLSCAASGFSFSNYGMAWVRQAPGKGLEWVASISTGGGNTYYRDSVKGRFTISRDNAKNTLYLQMNSLRAEDTAVYYCTRHDRGGLYWGQGTMVTVSSASTKGPSVFPLAPSSKSTSGGTAALGCLVEDYFPEPVTVSWNSGALTSGVHTFPAVLQSSGLYSLSSVVTVPSSSLGTQTYICNVNHKPSNTKVDEKVEPKSCDKTHTCPPCPAPEAAGGPSVFLFPPKPKDTLMISRTPEVTCVVVDVSHEDPEVKFNWYVDGVEVHNAKTKPREEQYNSTYRVVSVLTVLHQDWLNGKEYKCKVSNKALGAPIEKTISKAKGQPREPQVCTLPPSRDELTKNQVSLSCAVKGFYPSDIAVEWESNGQPENNYKTTPPVLDSDGSFFLVSKLTVDKSRWQQGNVFSCSVMHEALHNHYTQKSLSLSP light 1: DIVMTQSPLSLPVTPGEPASISCRSSKSLLHSNGITYVYWYLQKPGQSPQLLIYRMSNRASGVPDRFSGSGSGTDFTLKISRVEAEDVGVYHCGQLLENPYTFGQGTKLEIKRTVAAPSVFIFPPSDRKLKSGTASVVCLLNNFYPREAKVQWKVDNALQSGNSQESVTEQDSKDSTYSLSSTLTLSKADYEKHKVYACEVTHQGLSSPVTKSFNRGEC light 2: EVQLLESGGGLVQPGGSLRLSCAASGFTFESYAMNWVRQAPGKGLEWVSRIRSKYNEYATYYADSVKGRFTISRDDSKNTLYLQMNSLRAEDTAVYYCVRASNFPSSFVSYFGYWGQGTLVTVSSASVAAPSVFIFPPSDEQLKSGTASVVCLLNNFYPREAKVQWKVDNALQSGNSQESVTEQDSKDSTYSLSSTLTLSKADYEKHKVYACEVTHQGLSSPVTKSFNRGEC | 99% | 98% | 547 pM | 0.000948 s⁻¹ | 1.74e+06 M⁻¹ s⁻¹ | 12.2 min | 333 pM | 0.000688 s⁻¹ | 2.07e+06 M⁻¹ s⁻¹ | 16.8 min | binds | 0.41 pM
2 | GPRC5D-TCB, GPRC5D CD3 variant P035.093 (bispecific antibody, human IgG1, kappa, L234A L235A, 2+1 IgG CrossFab, inverted; human IgG1 Fc, knob-into-hole, PGLALA; also called P035.093 in GPRC5D-TCB format) heavy 1: not shown heavy 2: EVQLVESGGGVVQPGRSLRLSCAASGFSFSNYGMAWVRQAPGKGLEWVASISTGGGNTYYRDSVKGRFTISRDNAKNTLYLQMNSLRAEDTAVYYCTRHDRGGLYWGQGTMVTVSSASTKGPSVFPLAPSSKSTSGGTAALGCLVEDYFPEPVTVSWNSGALTSGVHTFPAVLQSSGLYSLSSVVTVPSSSLGTQTYICNVNHKPSNTKVDEKVEPKSCDKTHTCPPCPAPEAAGGPSVFLFPPKPKDTLMISRTPEVTCVVVDVSHEDPEVKFNWYVDGVEVHNAKTKPREEQYNSTYRVVSVLTVLHQDWLNGKEYKCKVSNKALGAPIEKTISKAKGQPREPQVCTLPPSRDELTKNQVSLSCAVKGFYPSDIAVEWESNGQPENNYKTTPPVLDSDGSFFLVSKLTVDKSRWQQGNVFSCSVMHEALHNHYTQKSLSLSP light 1: DIVMTQSPLSLPVTPGEPASISCRSSKSLLHSNGITYVYWYLQKPGQSPQLLIYRMSNRASGVPDRFSGSGSGTDFTLKISRVEAEDVGVYHCGQLLENPYTFGQGTKLEIKRTVAAPSVFIFPPSDRKLKSGTASVVCLLNNFYPREAKVQWKVDNALQSGNSQESVTEQDSKDSTYSLSSTLTLSKADYEKHKVYACEVTHQGLSSPVTKSFNRGEC light 2: EVQLLESGGGLVQPGGSLRLSCAASGFTFSSYAMNWVRQAPGKGLEWVSRIRSKYNNYATYYADSVKGRFTISRDDSKNTLYLQMNSLRAEDTAVYYCVRASNFPASYVSYFAYWGQGTLVTVSSASVAAPSVFIFPPSDEQLKSGTASVVCLLNNFYPREAKVQWKVDNALQSGNSQESVTEQDSKDSTYSLSSTLTLSKADYEKHKVYACEVTHQGLSSPVTKSFNRGEC | 100% | 97% | 377 pM | 0.0013 s⁻¹ | 3.46e+06 M⁻¹ s⁻¹ | 8.89 min | 241 pM | 0.000866 s⁻¹ | 3.61e+06 M⁻¹ s⁻¹ | 13.3 min | binds | 0.31 pM
3 | GPRC5D-TCB, GPRC5D CD3 variant P004.042 (bispecific antibody, human IgG1, kappa, L234A L235A, 2+1 IgG CrossFab, inverted; human IgG1 Fc, knob-into-hole, PGLALA; also called P004.042 in GPRC5D-TCB format) heavy 1: not shown heavy 2: EVQLVESGGGVVQPGRSLRLSCAASGFSFSNYGMAWVRQAPGKGLEWVASISTGGGNTYYRDSVKGRFTISRDNAKNTLYLQMNSLRAEDTAVYYCTRHDRGGLYWGQGTMVTVSSASTKGPSVFPLAPSSKSTSGGTAALGCLVEDYFPEPVTVSWNSGALTSGVHTFPAVLQSSGLYSLSSVVTVPSSSLGTQTYICNVNHKPSNTKVDEKVEPKSCDKTHTCPPCPAPEAAGGPSVFLFPPKPKDTLMISRTPEVTCVVVDVSHEDPEVKFNWYVDGVEVHNAKTKPREEQYNSTYRVVSVLTVLHQDWLNGKEYKCKVSNKALGAPIEKTISKAKGQPREPQVCTLPPSRDELTKNQVSLSCAVKGFYPSDIAVEWESNGQPENNYKTTPPVLDSDGSFFLVSKLTVDKSRWQQGNVFSCSVMHEALHNHYTQKSLSLSP light 1: DIVMTQSPLSLPVTPGEPASISCRSSKSLLHSNGITYVYWYLQKPGQSPQLLIYRMSNRASGVPDRFSGSGSGTDFTLKISRVEAEDVGVYHCGQLLENPYTFGQGTKLEIKRTVAAPSVFIFPPSDRKLKSGTASVVCLLNNFYPREAKVQWKVDNALQSGNSQESVTEQDSKDSTYSLSSTLTLSKADYEKHKVYACEVTHQGLSSPVTKSFNRGEC light 2: EVQLLESGGGLVQPGGSLRLSCAASGFQFDNYAMNWVRQAPGKGLEWVSRIRTKYNEYATYYADSVKGRFTISRDDSKNTLYLQMNSLRAEDTAVYYCVRASNFPQSYVSYFGYWGQGTLVTVSSASVAAPSVFIFPPSDEQLKSGTASVVCLLNNFYPREAKVQWKVDNALQSGNSQESVTEQDSKDSTYSLSSTLTLSKADYEKHKVYACEVTHQGLSSPVTKSFNRGEC | 100% | 99% | 1210 pM | 0.00265 s⁻¹ | 2.2e+06 M⁻¹ s⁻¹ | 4.36 min | 599 pM | 0.00163 s⁻¹ | 2.72e+06 M⁻¹ s⁻¹ | 7.09 min | binds | 0.87 pM
